The target in test [1] is monomeric ACE2 (a.a 19-611), C-terminally His-tagged (human) (UniProt Q9BYF1). The experiment in a line: mass photometry.
The target of test [2] is HEK-derived SARS-CoV-2 Wuhan-Hu-1 spike receptor-binding domain (RBDHEK) (SARS-CoV-2 (Wuhan-Hu-1)) (UniProt P0DTC2). Nature of the test: mass photometry.

Chain of monomeric ACE2 (a.a 19-611), C-terminally His-tagged (human) (Q9BYF1 19-611): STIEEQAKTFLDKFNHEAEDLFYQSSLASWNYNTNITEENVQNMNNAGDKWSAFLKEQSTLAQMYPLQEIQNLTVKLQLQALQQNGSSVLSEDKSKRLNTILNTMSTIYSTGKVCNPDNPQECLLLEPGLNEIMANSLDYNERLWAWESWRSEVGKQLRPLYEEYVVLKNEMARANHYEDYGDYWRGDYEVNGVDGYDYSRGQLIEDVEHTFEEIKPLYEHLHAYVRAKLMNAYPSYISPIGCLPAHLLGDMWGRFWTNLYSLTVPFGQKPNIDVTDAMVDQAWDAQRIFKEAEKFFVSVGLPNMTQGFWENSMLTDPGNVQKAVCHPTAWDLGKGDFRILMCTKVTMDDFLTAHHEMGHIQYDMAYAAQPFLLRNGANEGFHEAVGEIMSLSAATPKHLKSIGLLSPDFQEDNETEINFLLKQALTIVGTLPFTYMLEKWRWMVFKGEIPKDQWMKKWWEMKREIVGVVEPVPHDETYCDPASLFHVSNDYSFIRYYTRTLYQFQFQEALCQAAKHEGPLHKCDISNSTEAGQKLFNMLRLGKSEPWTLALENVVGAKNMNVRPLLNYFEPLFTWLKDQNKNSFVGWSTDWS

For the substance “HEK-derived SARS-CoV-2 Wuhan-Hu-1 spike receptor-binding domain (RBDHEK) (from UniProt P0DTC2 319-541) (domain or fragment)”, in test [1], the binding occupancy was determined as 33%. Also, in test [2], the percent dimeric species was determined as 19.6% and the stoichiometry N was 2.

In general, stoichiometry N refers to a count of units in the complex or per binding partner.

Values taken from paper PMC11758712.
